In the experiment the target is P8 carrier peptide (Influenza H5N1). The experiment in a line: AUC.

One may read the stoichiometry N as the number of molecules, sites or subunits per partner or assembly.

Take P8 carrier peptide: the percent of the peptide as trimers came to 70% and the stoichiometry N is 3.

The values above are taken from paper PMC6642127.
